Data: patent US20220096653A1, “CONJUGATE COMPRISING LIGAND AND CEACAM5 ANTIBODY FAB FRAGMENT” (ASTELLAS PHARMA INC., priority 2019, published 2022)
Read-outs that look alike come from different tables or passages of the source.

Tests used:
[1] = mouse, in vivo
Experimental: (§1) A Gd-labeled conjugate of the conjugate containing a peptide linker produced in one of the above Examples was administered from the tail vein of mice (BALB/c or BALB/c nu/nu) so that the protein mass was 0.02 mg (100 μL) per animal. After about 24 hours, the mice were sacrificed and the kidneys were removed, and the amount of Gd in the kidneys was measured using ICP-MS. The present test was carried out in 3 cases in each group, the mean value of the 3 cases was calculated, and the amount of Gd contained per kidney after administration was shown as a percentage (% of dose/tissue) of the total amount of Gd administered.
(§2) Based on the percentage of the control conjugate (% of dose/tissue), the proportion of decrease in the amount of Gd contained in the kidneys of each of the conjugates having a peptide linker was determined and shown in Table 28.

[2] = parameters: species or system mice (BALB/c nu/nu); conditions: mouse, in vivo
Experimental: A Gd-labeled conjugate of the conjugate containing a peptide linker produced in one of the above Examples was administered from the tail vein of tumor-bearing mice so that the protein mass was 0.02 mg (100 μL) per animal. As the tumor-bearing mice used in the present Example, mice (BALB/c nu/nu) that were in a tumor-bearing state brought about by transplanting human colorectal cancer cell line LS174T cells (ATCC(registered trademark); CL-188) at 2.0 to 5.0×10^6 cells/mouse subcutaneously on the back before administration of the sample were used. 24 hours after administration of the sample, the mice were sacrificed, the kidneys and the tumor were removed, and the amounts of Gd in the kidneys and in the tumor were measured using ICP-MS. The present test was carried out in 3 cases in each group, and the mean value of the 3 cases was calculated. The amount of Gd contained per kidney after administration was shown as a percentage of the amount of Gd administered (% of dose/tissue), and the amount of Gd contained per g of tumor tissue was shown as a percentage of the total amount of Gd administered (% of dose/g).

[3] = parameters: species or system mice (BALB/c or BALB/c nu/nu); conditions: mouse, in vivo
Experimental: as §1

[4] = Kidney accumulation evaluation test of Gd-labeled conjugates, normal mice (Example 4-1); conditions: for Proportion of decrease (amount of Gd contained in the kidneys): based on control conjugate Ex-No. 47, about 24 hours; for % of dose/tissue (amount of Gd contained per kidney): tail vein, 0.02 mg protein per animal, about 24 hours, ICP-MS, mean of 3 cases
Experimental: as §1, §2

[5] = mouse, in vivo; remark: listed apart in the source
Experimental: as §1

[6] = molecular target: human cancer-specific MUC1 peptide (PTL 1) (human); assay: ELISA on immobilised human cancer-specific MUC1 peptide, 4-parameter fit, duplicate (Example 6-2)

B1: [Gd/DOTA-NH—(CH2CH2O)3—CH2—C(═O)—NH—CH2-(1,3-Ph)-C(═O)-Met-Gly-Lys*-Z2(#N)]p-Fab^2 (conjugate)
heavy: EVQLVESGGGLVQPGGSLRLSCAASGFNIRDTYMHWVRQAPGKGLEWVARIDPANGNSRYVPKFQGRFTISADTSRNTAYLQMNSLRAEDTAVYYCAPFGYYVSDYAMAYWGQGTLVTVSSASTKGPSVFPLAPSSKSTSGGTAALGCLVKDYFPEPVTVSWNSGALTSGVHTFPAVLQSSGLYSLSSVVTVPSSSLGTQTYICNVNHKPSNTKVDKKVEPKSCD
light: DIQLTQSPSSLSASVGDRVTITCRAGESVDIFGVGFLHWYQQKPGKAPKLLIYRASNLESGIPSRFSGSGSRTDFTLTISSLQPEDFATYYCQQTNEDPYTFGQGTKVEIKRTVAAPSVFIFPPSDEQLKSGTASVVCLLNNFYPREAKVQWKVDNALQSGNSQESVTEQDSKDSTYSLSSTLTLSKADYEKHKVYACEVTHQGLSSPVTKSFNRGEC
[1]
  % of dose/tissue (amount of Gd contained per kidney): 6.8 % of dose/tissue
  Proportion of decrease (amount of Gd contained in the kidneys): 78.0%
[2]
  Renal residual amount (tumor-bearing mice) % of dose/tissue: 8.40 % of dose/tissue
  Renal residual amount (tumor-bearing mice) Proportion of decrease: 67.48%

B2: [Gd/DOTA-NH—(CH2CH2O)3—CH2—C(═O)—NH—CH2-(1,3-Ph)-C(═O)-Met-Gly-Lys*-Z2(#S)]p-Fab^2 (conjugate)
heavy: B1 heavy
light: B1 light
[1]
  % of dose/tissue (amount of Gd contained per kidney): 7.0 % of dose/tissue
  Proportion of decrease (amount of Gd contained in the kidneys): 77.4%
[2]
  Renal residual amount (tumor-bearing mice) % of dose/tissue: 9.40 % of dose/tissue
  Renal residual amount (tumor-bearing mice) Proportion of decrease: 63.61%

B3: [Gd/DOTA-NH—CH2-(1,4-Ph)-NH—C(═O)-Met-Ile-NH—(CH2)2—Z1(#N)]p-Fab^2 (conjugate)
heavy: B1 heavy
light: B1 light
[3]
  Renal residual amount (normal mice) % of dose/tissue: 2.60 % of dose/tissue
  Renal residual amount (normal mice) Proportion of decrease: 91.13%
[2]
  Renal residual amount (tumor-bearing mice) % of dose/tissue: 5.77 % of dose/tissue
  Renal residual amount (tumor-bearing mice) Proportion of decrease: 77.68%

B4: [Gd/4arm-DOTA-CH2-(1,4-Ph)-NH—C(═S)-Gly-Phe-Lys*-Z2(#N)]p-Fab^2 (conjugate)
heavy: B1 heavy
light: B1 light
[4]
  Proportion of decrease (amount of Gd contained in the kidneys): 68.0%
  % of dose/tissue (amount of Gd contained per kidney): 9.9 % of dose/tissue

B5: [Gd/DOTA-NH—CH2-(1,4-Ph)-NH—C(═O)-Met-Ile-NH—(CH2)2-(A-4 and/or A-5)]p-Fab^2 (conjugate)
heavy: B1 heavy
light: B1 light
[5]
  Renal residual amount (normal mice) % of dose/tissue: 2.43 % of dose/tissue
  Renal residual amount (normal mice) Proportion of decrease: 92.15%

B6: [Gd/DOTA-NH—CH2-(1,3-Ph)-C(═O)-Met-Gly-Lys*-Z2(#S)]p-Fab^2 (conjugate)
heavy: B1 heavy
light: B1 light
[1]
  % of dose/tissue (amount of Gd contained per kidney): 12.9 % of dose/tissue
  Proportion of decrease (amount of Gd contained in the kidneys): 58.3%
[2]
  Renal residual amount (tumor-bearing mice) % of dose/tissue: 12.33 % of dose/tissue
  Renal residual amount (tumor-bearing mice) Proportion of decrease: 52.26%

B7: [Gd/DOTA-NH—CH2-(1,4-Ph)-NH—C(═O)-Met-Ile-NH—(CH2)2-(A-3)]p-Fab^2 (conjugate)
heavy: B1 heavy
light: B1 light
[5]
  Renal residual amount (normal mice) % of dose/tissue: 1.43 % of dose/tissue
  Renal residual amount (normal mice) Proportion of decrease: 95.38%

B8: [Gd/DOTA-NH—(CH2CH2O)3—CH2—C(═O)—NH—CH2-(1,3-Ph)-C(═O)-Gly-Lys*-Z2(#N)]p-Fab^2 (conjugate)
heavy: B1 heavy
light: B1 light
[1]
  % of dose/tissue (amount of Gd contained per kidney): 17.1 % of dose/tissue
  Proportion of decrease (amount of Gd contained in the kidneys): 44.8%

B9: [Gd/DOTA]p-Fab^2 (conjugate)
heavy: B1 heavy
light: B1 light
[3]
  Renal residual amount (normal mice) Mean: 29.33 % of dose/tissue
[2]
  Renal residual amount (tumor-bearing mice) Mean: 25.83 % of dose/tissue
[5]
  Renal residual amount (normal mice) % of dose/tissue: 31.33 % of dose/tissue

B10: Ex-No 10: (Y—S1—X)p-Fab^2: Y Gd/DOTA; S1 bond; X -Met-Ile-Lys*-Z2(#N)— (conjugate)
heavy: B1 heavy
light: B1 light
[3]
  Renal residual amount (normal mice) % of dose/tissue: 20.10 % of dose/tissue
  Renal residual amount (normal mice) Proportion of decrease: 31.46%

B11: [Gd/4arm-DOTA-CH2-(1,4-Ph)-NH—C(═S)—NH—CH2-(1,3-Ph)-C(═O)-Met-Gly-Lys*-Z2(#S)]p-Fab^2 (conjugate)
heavy: B1 heavy
light: B1 light
[4]
  Proportion of decrease (amount of Gd contained in the kidneys): 72.9%
  % of dose/tissue (amount of Gd contained per kidney): 8.4 % of dose/tissue

B12: [Gd/DOTA-NH-CH2-(1,4-Ph)-NH-C(═O)-Met-Ile-NH-(CH2)2-Z1(#N)]p-Fab^5 (Fab, V domains shown)
VH: QVQLVQSGAEVKKPGASVKVSCKASGYTFTNYGLSWVRQAPGQGLEWMGENHPGSGIIYHNEKFRGRVTLTADRSTSTAYMELSSLRSEDTAVYYCARSSGTRGFDYWGQGTLVTVSS
VL: DVVMTQTPLSLSVTPGQPASISCRSSQSIVHSNGNTYLEWYLQKPGQSPQLLIYRVSNRFSGVPDRFSGSGSGTDFTLKISRVEAEDVGVYYCFQGSHGPWTFGQGTKLEIKR
modifications: labeling may sit on this chain; sites not stated; labeling portion (MW 1074) on amino groups of the Fab, sites and chain not stated; 1-2 per Fab by MS; Gln 1 pyroglutamic acid as Fab^5 is defined in paragraph 370
[6]
  EC50: 0.08 nM

B13: [Gd/DOTA-[2,5-(1,2,3,4-tetrahydroisoquinoline)]-C(═O)-Met-Gly-Lys*-C(═S)-NH-(1,4-Ph)-NH-C(═S)]p-Fab^5 (Fab, V domains shown)
VH: B12 VH
VL: B12 VL
modifications: labeling may sit on this chain; sites not stated; labeling portion (MW 1228) on amino groups of the Fab, sites and chain not stated; 1-2 per Fab by MS; Gln 1 pyroglutamic acid as Fab^5 is defined in paragraph 370
[6]
  EC50: 0.19 nM

B14: Ex-No 111, conjugate of Fab^5 (structure given only as drawing CHEM-US-00168) (Fab, V domains shown)
VH: B12 VH
VL: B12 VL
modifications: labeling may sit on this chain; sites not stated; low molecular weight molecule (MW 1391) bound to the Fab, sites and chain not stated; 1-2 per Fab by MS; Gln 1 pyroglutamic acid as Fab^5 is defined in paragraph 370
[6]
  EC50: 0.16 nM

B15: Ex-No 103, conjugate of Fab^5 (structure given only as drawing CHEM-US-00162) (Fab, V domains shown)
VH: B12 VH
VL: B12 VL
modifications: labeling may sit on this chain; sites not stated; low molecular weight molecule (MW 1115) bound to the Fab, sites and chain not stated; 1-2 per Fab by MS; Gln 1 pyroglutamic acid as Fab^5 is defined in paragraph 370
[6]
  EC50: 0.08 nM

B16: Ex-No 102, conjugate of Fab^5 (structure given only as drawing CHEM-US-00161) (Fab, V domains shown)
VH: B12 VH
VL: B12 VL
modifications: labeling may sit on this chain; sites not stated; low molecular weight molecule (MW 1278) bound to the Fab, sites and chain not stated; 1-2 per Fab by MS; Gln 1 pyroglutamic acid as Fab^5 is defined in paragraph 370
[6]
  EC50: 0.07 nM

B17: Ex-No 109, conjugate of Fab^5 (structure given only as drawing CHEM-US-00166) (Fab, V domains shown)
VH: B12 VH
VL: B12 VL
modifications: labeling may sit on this chain; sites not stated; low molecular weight molecule (MW 1216) bound to the Fab, sites and chain not stated; 1-2 per Fab by MS; Gln 1 pyroglutamic acid as Fab^5 is defined in paragraph 370
[6]
  EC50: 0.08 nM

B18: Ex-No 106, conjugate of Fab^5 (structure given only as drawing CHEM-US-00164) (Fab, V domains shown)
VH: B12 VH
VL: B12 VL
modifications: labeling may sit on this chain; sites not stated; low molecular weight molecule (MW 1380) bound to the Fab, sites and chain not stated; 1-3 per Fab by MS; Gln 1 pyroglutamic acid as Fab^5 is defined in paragraph 370
[6]
  EC50: 0.1 nM

B19: Ex-No 105, conjugate of Fab^5 (structure given only as drawing CHEM-US-00163) (Fab, V domains shown)
VH: B12 VH
VL: B12 VL
modifications: labeling may sit on this chain; sites not stated; low molecular weight molecule (MW 1190) bound to the Fab, sites and chain not stated; 1-3 per Fab by MS; Gln 1 pyroglutamic acid as Fab^5 is defined in paragraph 370
[6]
  EC50: 0.11 nM

B20: Ex-No 110, conjugate of Fab^5 (structure given only as drawing CHEM-US-00167) (Fab, V domains shown)
VH: B12 VH
VL: B12 VL
modifications: labeling may sit on this chain; sites not stated; low molecular weight molecule (MW 1201) bound to the Fab, sites and chain not stated; 1-2 per Fab by MS; Gln 1 pyroglutamic acid as Fab^5 is defined in paragraph 370
[6]
  EC50: 0.19 nM

B21: [Gd/DOTA-NH-CH2-(1,4-Ph)-NH-C(═O)-Met-Ile-NH-(CH2)2-Z1(#S)]p-Fab^5 (Fab, V domains shown)
VH: B12 VH
VL: B12 VL
modifications: labeling may sit on this chain; sites not stated; labeling portion (MW 1175) bound via 2-iminothiolane-treated amino groups of the Fab, sites and chain not stated; 1-3 per Fab by MS; Gln 1 pyroglutamic acid as Fab^5 is defined in paragraph 370
[6]
  EC50: 0.09 nM
